Results as given in paper PMC8816346 (Science Advances, 2022).

Target: TOPBP1, purified recombinant (human, UniProt Q92547 1-1522)
Test: pull-down

Chain of TOPBP1, purified recombinant (Q92547 whole entry): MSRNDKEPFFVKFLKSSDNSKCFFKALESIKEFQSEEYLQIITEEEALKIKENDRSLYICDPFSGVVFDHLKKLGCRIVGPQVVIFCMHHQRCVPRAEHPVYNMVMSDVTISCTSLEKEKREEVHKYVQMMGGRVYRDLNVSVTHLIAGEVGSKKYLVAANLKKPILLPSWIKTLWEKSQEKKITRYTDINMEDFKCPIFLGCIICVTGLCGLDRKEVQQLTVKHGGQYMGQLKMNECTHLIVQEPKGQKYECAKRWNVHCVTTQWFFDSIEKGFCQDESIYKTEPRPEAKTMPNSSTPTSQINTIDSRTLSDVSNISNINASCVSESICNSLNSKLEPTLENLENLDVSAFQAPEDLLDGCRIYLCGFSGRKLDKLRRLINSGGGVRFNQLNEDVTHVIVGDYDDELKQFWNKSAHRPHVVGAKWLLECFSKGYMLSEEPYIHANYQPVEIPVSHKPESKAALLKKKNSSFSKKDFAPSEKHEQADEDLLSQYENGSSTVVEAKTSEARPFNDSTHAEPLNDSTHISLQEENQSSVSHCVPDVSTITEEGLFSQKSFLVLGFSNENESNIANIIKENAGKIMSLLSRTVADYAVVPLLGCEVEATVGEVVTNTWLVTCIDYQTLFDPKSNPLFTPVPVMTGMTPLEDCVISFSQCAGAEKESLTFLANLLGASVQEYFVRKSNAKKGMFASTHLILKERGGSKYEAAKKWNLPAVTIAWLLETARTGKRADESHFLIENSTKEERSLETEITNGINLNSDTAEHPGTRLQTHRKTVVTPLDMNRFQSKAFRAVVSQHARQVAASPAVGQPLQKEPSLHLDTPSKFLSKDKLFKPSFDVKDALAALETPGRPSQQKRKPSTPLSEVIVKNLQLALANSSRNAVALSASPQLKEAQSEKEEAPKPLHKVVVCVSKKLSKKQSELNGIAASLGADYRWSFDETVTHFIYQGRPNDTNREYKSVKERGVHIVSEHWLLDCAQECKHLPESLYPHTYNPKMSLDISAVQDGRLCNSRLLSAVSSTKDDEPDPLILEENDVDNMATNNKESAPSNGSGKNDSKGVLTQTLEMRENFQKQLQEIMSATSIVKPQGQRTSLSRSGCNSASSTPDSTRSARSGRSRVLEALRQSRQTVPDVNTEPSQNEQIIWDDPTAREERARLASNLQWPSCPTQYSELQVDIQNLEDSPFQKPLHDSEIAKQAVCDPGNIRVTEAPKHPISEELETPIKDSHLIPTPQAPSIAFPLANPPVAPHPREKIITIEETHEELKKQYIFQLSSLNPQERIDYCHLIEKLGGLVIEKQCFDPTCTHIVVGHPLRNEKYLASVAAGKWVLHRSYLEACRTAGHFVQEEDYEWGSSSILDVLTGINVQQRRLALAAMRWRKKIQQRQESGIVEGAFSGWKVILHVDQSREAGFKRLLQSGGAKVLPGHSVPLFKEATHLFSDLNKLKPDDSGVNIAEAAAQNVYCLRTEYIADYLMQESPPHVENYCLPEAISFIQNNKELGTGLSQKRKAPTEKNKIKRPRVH

B1: BLM^λ (BLM^P dephosphorylated with λ-phosphatase) (natural protein)
chain: not shown
B1: binds.
